Biological target: His-tagged human FcRn/β2-microglobulin complex (human) (UniProt P55899)
Assay: SPR; Biacore 8K, CM5 chip; His-tagged human FcRn/β2-microglobulin captured (45-60 RU) on covalently linked anti-His antibody; IgG1 injected as two-fold, eight-step series 75 nM to 0.29 nM; 25 °C; 20 mM phosphate pH 6.0, 137 mM NaCl, 2.7 mM KCl, 0.05% Tween-20; 1:1 binding model, apparent constants, KD = kd/ka; n=3 …

Kd: 67.6 nM
koff: 0.0439 s⁻¹
kon: 649000 M⁻¹ s⁻¹
Substance: IgG1-Campath (antibody)

— PMC9546771
